From the domain aggregation screens of Martell et al. (2025)

Experiment: soluble fraction after stress (log2 fold change); higher = more stays soluble; pooled small domains, quantitative proteomics
Settings: stress: 75 degC
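Also: 20 min heating vs room temperature control held 20 min.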

HMNWQLITDPKELRELVQKTIADNEAGTSRLREGDMGPLEFLTGIIMKKTRGLADPTMVKALLKEELNI
soluble fraction (log2): -0.0208

HMNYEFLEKIGFSSNEAKVYGTLIKHKVLNGYEIAKLSGVARSLVYEVINRLVAKGAVIRIDGEPNFYKP
soluble fraction (log2): -2.2

HMNYHDTLSYLMDAFGGADNLQKLLGVGPSALSNYRRREHLPLNQARKLSNIAPEFGFNLDPYTLKISVID
soluble fraction (log2): -1.62

HMNYKLESYLKKVDDQLNFIPVSDKADILSELKNTFYERLLNGQTEEEILDEMESPRELALSYMSES
soluble fraction (log2): -0.00676

HMNYTYTVPEGIRYLRADKALALAFPDHSRTALQRAFDSGLVTLRGVAIKRDQSVTALDTLEFAMPDI
soluble fraction (log2): -0.981

HMNYVFVLNEHGVRQTSYVVGLHADTLEKTEKLAKQTYPTSTIISGDSEMQSQFISGKAYVNGEFVDP
soluble fraction (log2): -0.713

HMPAFWILAVLAGGRRHGYQIMREAALSSEGLVTLKPTTLYAALERLERDGAIQQDGEEIVDGRVRRYYRI
soluble fraction (log2): 0.16

HMPAKDAEFTAFVRSATPTLTRTAYLLTGDRETASDLVQEAFVRTYLAWRRVRPEEATAYTRRVLVN
soluble fraction (log2): 0.321

HMPAPMISIQLNGEPRNVQPGISIAALVREIGLEPAKVAVERNREIVPRSTLGDVLIEAGDQLEIVHFVG
soluble fraction (log2): -0.45

HMPAQPEPYNNLARLYSAQGKLDQAASLLRAGLYTDPAYRALFDNLTRIYAEQAARSLSAALD
soluble fraction (log2): -1.1

HMPASDPNEKQILRFLTEHQVITRKETQALLDVSQSTAGRVLKAMVDNGQIKQLGGSRNTRYELPM
soluble fraction (log2): -0.141

HMPASGISSEIIYDGILIEENLRQLKKDKAWLMDQLKKKGISSVSEVFLATLNKGGSLYIDKY
soluble fraction (log2): -0.451

HMPASVSAIRKYLGGGSFKGVGPALAKRIVDAFGEYTIETIENDPKQLAKVKGVSEKMALEINTQ
soluble fraction (log2): -0.582

HMPAYYQKEAVLDGRASVFAYERDPSSWYFKQLIPGTKKYRTKKIQGATTLEQAKSQALDIALGLRDEP
soluble fraction (log2): -0.0971

HMPDDHFIRGYVTAVLEQVLKVPSIQVEVERGVVILRGDLPGEERQELLDAVSRIHGVARVEYIPL
soluble fraction (log2): -0.686

HMPDLSGEEQQIVDILAQRGNLQINTLVVETDIPVHKMNAILFELEMKGVVRVLAGGMYQLL
soluble fraction (log2): -1.02

HMPDPLVEIRSAVHSNYAGMIAMLGADNRVYLGREEHYSYQDGQPGQYDNRDGSLLFVSDQPDIYYFL
soluble fraction (log2): -1.17

HMPEAITLRDLKTYSKQAASGYLDDHQLVLVEKEAHSEDVPEGQVIKQKPGAGASVKPGDKVEVTFSLGPE
soluble fraction (log2): 0.0463

HMPEKKKYGDFVSMTEEEYGKLVSEYGQEAAKRMVEILNNYKGATGKPYKSDYLAILNWVVKRIKEE
soluble fraction (log2): -0.0863

HMPELFLFNPDTASAATFQALGFSARQAGVLIHFREALGGRFGSVEQFSKSYVVDSATLERLRPYMVF
soluble fraction (log2): -4.13

HMPEMHIYTKEGKIHITHIDENEEIKIYNPLGQIIYTGSPQDIPVLEGKGLYIIYIGKSAVEVLES
soluble fraction (log2): -2.2

HMPENESPEEKHARFRRFAEGLMARLDENESVRDILPELKVWLDDRELDRDDQRLARNLMLTAGKRE
soluble fraction (log2): 0.0151

HMPEPLTARETEVLRLLSGGYSNREIAAAMFLAEGTIKNHVSAVLLKLGVRDRTRAVLRGLELGLIQ
soluble fraction (log2): -2.27

HMPEPPRVGETLAALRQDRALSLDELSRQAGVSKSMLSQIERNQANPTVAVVWRLANALGVPMAELLGA
soluble fraction (log2): -0.272

HMPGDIRKAAILLMSLPREQAAQVLARLDPKQVEAVTIEIARLGTVTPDEQEQALKEFSQANPA
soluble fraction (log2): 0.0238

HMPGIDDAAVEHAERVLAQHIGPMARLLVRRTVPRAANLFDLHRRLGALIPESEPRTAFLSAVVT
soluble fraction (log2): 0.0954

HMPGLSQAEAQSLLIAYLAQQGRTLELIPLGQSGDVWRFSGRESDGTVVSFFMVSRTDGTISEVPVPP
soluble fraction (log2): -1.06

HMPGRLSRREVEVIELTARGLPAAEMAVRLGISANTIEFHRRRIMQKLGVANAAEMVRRATELGW
soluble fraction (log2): -2.28

HMPGRVITVMVNGKRVDLPFREEPYIFVDLFRYMDFDVERARGRIQLAINGKKAGYTDIIREGDSIEI
soluble fraction (log2): -2.54

HMPGTAAQARQLKAWLKENGEKPGAALPALQKAQEIYGYVPREVQQLIADALHKPLTEIYGVSTFYSQFNL
soluble fraction (log2): -0.566

HMPGTPADQVAELQTKVGTETKTGDMITQDDVKLLQTALDPLAKMNDRIQAAKILESKGIVTSDGNLRT
soluble fraction (log2): 0.0421

HMPIGENIKRLRIMHGLSQKELAQIAGVSDKAVSTWENGTKEPRMGAVQKITGYFGLKKSNLIEDNGL
soluble fraction (log2): -0.0452

HMPIMDSDDKYEALGIPQEWIAVVKKAGYQTVEALKAVENPNKLHQELSVMNKKEKLGLAGLTPEMVKAWL
soluble fraction (log2): 0.321

HMPINPKVKQIYDTLKDGGADVGSEKEFNDYFFAKGKDGYNNRKEVFNTLREGGADAGKSYEEFAGWLGL
soluble fraction (log2): 0.445

HMPIPIESEISRSPGQSIYAFVQQHYGRSGRSPADMRALVGLILRLNRQIRTPLLIPFGLVVVRPT
soluble fraction (log2): 0.335

HMPIRVGDAFESLAGVFPDEYNKALRKSTKKPVFFVPVKVEAGSGALRQKGKITFIVKDGRIDAIQIAL
soluble fraction (log2): -1.41

HMPISQGATVKHNANMRKGASTKYKVTGVLQEGEEVKILSQSNGWYKIQNSDNEKGWTYNTHINASDK
soluble fraction (log2): 0.0826

HMPKHFIDFSEGEVVSITDGPFKGFDGAISEIDNQKGKVKVMVSMFGRDTSVELDALQVKKV
soluble fraction (log2): 0.00647

HMPKITTIHIDPEKISKVIGPGGKTVKKIIEETGAKIDIEDTGKIFIAAVNTEAANKAIDMINGIVA
soluble fraction (log2): 0.101

HMPKLPIIYVLDGHVNKNALTTSGKNKVWIEHELKKHHINSIKDVLIAMTDTEGKFYYQLYD
soluble fraction (log2): -1.77

HMPKLSNNHMAVWQAIRSRTAKGEPSTRAVIRDDLKAAGMDTSKHFSRWLTKLIDLGMVVKDGENLSIR
soluble fraction (log2): -0.395

HMPKMISPAQIKAIGAKTNNIAKASGVEQAQVYQSAVAHLGINNKSTKELTSQEASKVIEYLSTL
soluble fraction (log2): 0.103

HMPKPMKATKITLQQEPRIRVDFTYDPLKVQQIKTISGARWSKSLKAWHIPYTKEAFNQLKKLFPNVEIEV
soluble fraction (log2): -1.44

HMPKSVRQSFVYSPMYRDVEYLADFLRNNNKDDSSVSASGDKLVYYGTADEIARVKSVLKGVDV
soluble fraction (log2): -0.00252

HMPLIPIAIELARHALPSLIGAIAGDKSEKVAKEVVDAALKTTGKTTPDEALHALQADPQLAHEYRLSLL
soluble fraction (log2): 0.982

HMPLKLIDVYLGRHGKKRYDVFKETGLSQQTLASANGKPAAALTGRILQAIGRTVGETPGRVLDEMLMIEQ
soluble fraction (log2): -1.02

HMPLLADLPNLLRKVLKQHPGRVVDVDLERGRQGREIYHVRVLQENGQVRGLFVDASTGELVS
soluble fraction (log2): -0.938

HMPLQLPEPMAELARNGETARLAEALKQGLDIDLRDGKGNTLLMIAAYQGRAETVAMLLKAGA
soluble fraction (log2): -2.29

HMPLSLESVSEGGRNDTAARIAGYLIAKGLNVDFARFFLQSWNTKNKPPLDDTEIDTIVNSIMKTHERKNQ
soluble fraction (log2): -0.858

HMPLTPATADAGRFVKQDRKYIRLLAKRYNFTHGDIKSEIDRVSAVLSSNGIDRVPLFLYKEYLEQYLAG
soluble fraction (log2): -2.04

HMPLTRSDVKRIQLWLMAHGYDIGSPDGVFGDKSNRAANAFLSQQGRSLETVTLGKLYDILEAN
soluble fraction (log2): -2.58

HMPMINLYQRLNLPPTASRAEIEAALAQYRSELSTAEIRGVQEWLLVNEVRHRYDAKLRQEQPSFFI
soluble fraction (log2): -1.08

HMPMTLGENIARLRTQKDWSQGDLADALGISRQSISKWETDTSIPELEKLIKLSELFGVTLDQLVRGE
soluble fraction (log2): -0.406

HMPNILLSVKDASVAISVSSKMVRLLIASGRLKAVNLGKRMTRISLQELTDFAQRQGGNVVLP
soluble fraction (log2): -0.123

HMPNLAAAIGARVTIRLREASGGFRDIVGTLQRFGDGVNELLNSKGQIISFSEDEIAIWREIK
soluble fraction (log2): -3.33
